The text below walks through data of paper PMC5640987 (Nature, 2017).

The data set “cryo-EM structure” deals with the molecule itself. In words: cryo-EM structure.
The target in a further data set is Tor1 (budding yeast (endogenous), UniProt P35169 1-2470). In words: cryo-EM structure.
Tor1, sequence (P35169 whole entry): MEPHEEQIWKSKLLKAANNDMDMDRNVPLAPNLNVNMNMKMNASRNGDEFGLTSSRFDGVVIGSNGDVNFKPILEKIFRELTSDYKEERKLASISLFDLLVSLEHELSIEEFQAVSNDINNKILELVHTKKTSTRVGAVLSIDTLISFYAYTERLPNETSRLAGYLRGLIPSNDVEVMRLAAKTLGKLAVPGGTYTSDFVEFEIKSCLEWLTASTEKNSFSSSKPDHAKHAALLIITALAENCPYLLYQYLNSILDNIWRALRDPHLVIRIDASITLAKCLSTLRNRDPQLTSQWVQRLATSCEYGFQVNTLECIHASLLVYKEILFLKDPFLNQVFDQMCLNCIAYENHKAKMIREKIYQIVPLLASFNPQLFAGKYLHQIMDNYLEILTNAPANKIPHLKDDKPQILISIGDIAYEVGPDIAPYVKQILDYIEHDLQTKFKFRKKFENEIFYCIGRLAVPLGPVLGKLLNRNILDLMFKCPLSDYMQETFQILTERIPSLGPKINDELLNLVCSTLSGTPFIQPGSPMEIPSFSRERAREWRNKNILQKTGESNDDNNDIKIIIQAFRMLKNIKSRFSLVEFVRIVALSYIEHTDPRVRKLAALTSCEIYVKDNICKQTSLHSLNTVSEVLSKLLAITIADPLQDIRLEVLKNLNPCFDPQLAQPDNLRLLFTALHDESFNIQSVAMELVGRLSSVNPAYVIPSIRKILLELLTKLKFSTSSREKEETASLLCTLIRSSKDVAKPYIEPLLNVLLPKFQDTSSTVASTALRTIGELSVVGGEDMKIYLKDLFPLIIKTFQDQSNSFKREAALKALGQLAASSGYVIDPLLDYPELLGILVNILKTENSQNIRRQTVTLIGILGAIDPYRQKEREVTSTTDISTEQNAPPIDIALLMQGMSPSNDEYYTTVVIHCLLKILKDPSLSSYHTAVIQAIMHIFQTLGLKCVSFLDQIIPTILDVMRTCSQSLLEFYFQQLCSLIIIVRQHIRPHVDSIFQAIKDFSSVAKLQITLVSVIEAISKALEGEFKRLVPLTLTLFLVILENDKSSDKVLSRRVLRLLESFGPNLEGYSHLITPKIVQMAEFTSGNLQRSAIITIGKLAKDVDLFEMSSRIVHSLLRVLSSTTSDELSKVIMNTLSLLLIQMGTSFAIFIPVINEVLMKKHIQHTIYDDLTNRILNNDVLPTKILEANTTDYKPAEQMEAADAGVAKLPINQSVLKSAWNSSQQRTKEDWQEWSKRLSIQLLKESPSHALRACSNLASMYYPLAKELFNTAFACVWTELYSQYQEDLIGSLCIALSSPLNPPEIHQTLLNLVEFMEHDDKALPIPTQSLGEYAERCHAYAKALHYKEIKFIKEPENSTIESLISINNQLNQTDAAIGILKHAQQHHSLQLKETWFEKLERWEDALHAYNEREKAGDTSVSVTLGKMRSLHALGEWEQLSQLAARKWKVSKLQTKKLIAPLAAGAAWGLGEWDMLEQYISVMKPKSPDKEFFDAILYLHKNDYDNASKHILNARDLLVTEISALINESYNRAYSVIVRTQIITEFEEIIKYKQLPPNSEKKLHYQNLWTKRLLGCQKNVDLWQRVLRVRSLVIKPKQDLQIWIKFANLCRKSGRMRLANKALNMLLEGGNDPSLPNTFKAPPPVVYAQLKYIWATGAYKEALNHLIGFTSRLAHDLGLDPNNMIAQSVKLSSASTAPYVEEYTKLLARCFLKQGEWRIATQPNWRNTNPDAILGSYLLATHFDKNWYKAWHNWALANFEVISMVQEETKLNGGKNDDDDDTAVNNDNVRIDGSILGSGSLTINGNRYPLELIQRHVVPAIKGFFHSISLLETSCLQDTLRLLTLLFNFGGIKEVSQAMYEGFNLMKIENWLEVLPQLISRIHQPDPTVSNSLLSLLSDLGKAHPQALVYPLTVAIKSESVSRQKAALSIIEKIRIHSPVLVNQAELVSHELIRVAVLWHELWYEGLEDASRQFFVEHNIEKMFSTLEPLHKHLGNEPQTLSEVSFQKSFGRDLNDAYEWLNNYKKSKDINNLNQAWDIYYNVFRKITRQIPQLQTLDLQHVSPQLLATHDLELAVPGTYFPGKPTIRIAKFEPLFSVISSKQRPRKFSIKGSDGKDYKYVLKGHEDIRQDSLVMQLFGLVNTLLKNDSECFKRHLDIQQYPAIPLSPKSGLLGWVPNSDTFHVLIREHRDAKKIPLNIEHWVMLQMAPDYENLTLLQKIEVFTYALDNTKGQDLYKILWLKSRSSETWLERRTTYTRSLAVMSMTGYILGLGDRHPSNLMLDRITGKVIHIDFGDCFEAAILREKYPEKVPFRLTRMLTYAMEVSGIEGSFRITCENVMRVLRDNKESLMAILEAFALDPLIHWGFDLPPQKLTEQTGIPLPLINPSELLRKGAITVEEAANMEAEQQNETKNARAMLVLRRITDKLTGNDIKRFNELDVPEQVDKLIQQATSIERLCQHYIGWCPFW

B1: Kog1 in the purified TORC1 helix (natural protein)
chain: MPEIYGPQPLKPLNTVMRHGFEEQYQSDQLLQSLANDFIFYFDDKRHKTNGNPIPEEDKQRDVNRYYQPITDWKIMKDRQKTVSAALLLCLNLGVDPPDVMKTHPCARVEAWVDPLNFQDSKKAIEQIGKNLQAQYETLSLRTRYKQSLDPCVEDVKRFCNSLRRTSKEDRILFHYNGHGVPKPTKSGEIWVFNRGYTQYIPVSLYDLQTWLGAPCIFVYDCNSAENILINFQKFVQKRIKDDEEGNHDVAAPSPTSAYQDCFQLASCTSDELLLMSPELPADLFSCCLTCPIEISIRIFLMQSPLKDSKYKIFFENSTSNQPFGDSKNSFKSKIPNVNIPGMLSDRRTPLGELNWIFTAITDTIAWTSLPRPLFKKLFRHDLMIAALFRNFLLAKRIMPWYNCHPVSDPELPDSITTHPMWKSWDLAMDEVLTKIVIDLKNAPPATALESQMILQQQETLQNGGSSKSNAQDTKAGSIQTQSRFAVANLSTMSLVNNPALQSRKSISLQSSQQQLQQQQQQQQQFTGFFEQNLTAFELWLKYASNVRHPPEQLPIVLQVLLSQVHRIRALVLLSRFLDLGPWAVYLSLSIGIFPYVLKLLQSPAPELKPILVFIWARIMSIDYKNTQSELIKEKGYMYFVTVLVPDWGVNGMSATNGSAMINSGNPLTMTASQNINGPSSRYYERQQGNRTSNLGHNNLPFYHSNDTTDEQKAMAVFVLASFVRNFPLGQKNCFSLELVNKLCFYIDNSEIPLLRQWCVILLGLLFADNPLNRFVCMNTGAVEILLKSLKDPVPEVRTASIFALKHFISGFQDAEVILRLQQEFEEQYQQLHSQLQHLQNQSHLQQQQSQQQQQHLEQQQMKIEKQIRHCQVMQNQLEVIDLRKLKRQEIGNLISILPLINDGSSLVRKELVVYFSHIVSRYSNFFIVVVFNDLLEEIKLLEKSDINTRNTSDKYSVSQGSIFYTVWKSLLILAEDPFLENKELSKQVIDYILLELSAHKELGGPFAVMEKFLLKRSSKAHQTGKFGFNSSQVQFVKSSLRSFSPNERVDNNAFKKEQQQHDPKISHPMRTSLAKLFQSLGFSESNSDSDTQSSNTSMKSHTSKKGPSGLYLLNGNNNIYPTAETPRFRKHTEPLQLPLNSSFLDYSREYFQEPQMKKQEADEPGSVEYNARLWRRNRNETIIQETQGEKKLSIYGNWSKKLISLNNKSQPKLMKFAQFEDQLITADDRSTITVFDWEKGKTLSKFSNGTPFGTKVTDLKLINEDDSALLLTGSSDGVIKIYRDYQDVDTFKIVSAWRGLTDMLLTPRSTGLLTEWLQIRGSLLTTGDVKVIRVWDAHTETVEVDIPAKTSSLITSLTADQLAGNIFVAGFADGSLRVYDRRLDPRDSMIRRWRAGNDKQGVWINNVHLQRGGYRELVSGATNGVVELWDIRSEDPVESFVDQNVTSQYGSQQKPTTMTCMQVHEHAPIIATGTKQIKIWTTSGDLLNSFKNSHNNGVTSTLAATGIPKSLSYSSTSDAFLSSMAFHPHRMMIAATNSHDSIVNIYKCEDERIDYF
As to B1, the binding result in the data set “cryo-EM structure” and with Tor1 was “binds” in each case.
